Assay results: paper PMC5186407 (Journal of molecular biology, 2016)
Each block holds one molecule with its values, some of them ahead of it.

Assays:
Hsp70 NBD (Homo sapiens) = Hsp70 NBD (Homo sapiens) (UniProt P0DMV8); settings: cited from earlier work
BAG3 Δ87–101 = BAG3 Δ87–101 (UniProt O95817); assay: ITC
BAG3 Δ200–213 = BAG3 Δ200–213 (UniProt O95817); assay: ITC
[1] = biological target: BAG3 with the first IPV motif mutated to GPG (IPV1) (UniProt O95817); assay: ITC
[2] = biological target: Hsp27-3D, triple phospho-mimetic mutant of Hsp27 (human) (UniProt P04792); assay: flow cytometry protein interaction assay
[3] = biological target: Hsp27c, truncated Hsp27 with only the core α-crystallin domain (human); assay: flow cytometry protein interaction assay
BAG3 Δ87–101 & Δ200–213 = BAG3 Δ87–101 & Δ200–213 (UniProt O95817 1-575, Δ87–101 | Δ200–213, Alexa Fluor label in the FCPIA experiments); assay: flow cytometry protein interaction assay

Hsp70 NBD (Homo sapiens), sequence (P0DMV8 2-386): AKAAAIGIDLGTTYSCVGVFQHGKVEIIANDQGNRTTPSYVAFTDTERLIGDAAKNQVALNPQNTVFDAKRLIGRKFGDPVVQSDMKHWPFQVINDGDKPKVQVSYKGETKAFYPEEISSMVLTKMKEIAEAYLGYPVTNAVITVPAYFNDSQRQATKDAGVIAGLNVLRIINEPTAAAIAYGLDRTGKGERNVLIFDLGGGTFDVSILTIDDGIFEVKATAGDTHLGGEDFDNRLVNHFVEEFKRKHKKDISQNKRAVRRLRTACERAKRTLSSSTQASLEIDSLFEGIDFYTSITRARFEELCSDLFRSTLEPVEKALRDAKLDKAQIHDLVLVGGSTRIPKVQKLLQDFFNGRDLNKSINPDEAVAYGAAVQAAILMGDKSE

stoichiometry N (BAG3 Δ87–101): 1 Hsp27c:BAG3 | stoichiometry N (BAG3 Δ200–213): 1 Hsp27c:BAG3 | stoichiometry N [1]: 1 Hsp27c:BAG3
Molecule: Hsp27c, truncated Hsp27 with only the core α-crystallin domain (domain or fragment)

Kd [2]: > 50 µM | fold weakening of the affinity against BAG3 with both IPV motifs [3]: > 25 fold
Molecule: BAG3 Δ87–101 & Δ200–213 (from UniProt O95817 1-575) (natural protein)

The next lines start with the molecule.

Molecule: BAG3 (from UniProt O95817)
Kd (Hsp70 NBD (Homo sapiens)): 0.01 µM

B1: Hsp20 (HSPB6) (natural protein, human, UniProt O14558 1-160, looked up)
chain: MEIPVPVQPSWLRRASAPLPGLSAPGRLFDQRFGEGLLEAELAALCPTTLAPYYLRAPSVALPVAQVPTDPGHFSVLLDVKHFSPEEIAVKVVGEHVEVHARHEERPDEHGFVAREFHRRYRLPPGVDPAAVTSALSPEGVLSIQAAPASAQAPPPAAAK
modifications: biotin (EZ-link NHS-Biotin) in the FCPIA experiments
Kd (BAG3 Δ87–101 & Δ200–213): > 50 µM
